Experimental data as given in article doi:10.1101/2024.11.01.621267.

Target: recombinant full-length RACK1 protein (ITC) (human) (UniProt P63244)
Assay: ITC; LARP4 peptide (400 μM; 300 μM for 600–625) injected into RACK1 (40 μM; 30 μM) in the cell; iTC200; 298K; 20 mM HEPES, 300 mM NaCl, 10% glycerol, 1 mM DTT pH 7.5; triplicate

Work on “HsLARP4 peptide 612–637 (from UniProt Q71RC2-1 612-637)” yielded a Kd of 2.1 µM, a dH of -8.6 kcal/mol and a stoichiometry N of 0.9.
